Experimental findings from patent publication US20250076264A1 are described below.

This assay deals with Human α-thrombin (Haematologic Technologies, Inc.) (human). Nature of the assay: cell-based or functional assay.

Consider “Antithrombin (Grifols Therapeutics Inc.) (from UniProt P01008 33-464)”, for which the time to completion of the fluorescence increase (dissociation of the TBA15-F9+TBA29-D9+thrombin complex) after adding 1940 nM ATIII to 200 nM complex was 600 s.
